Measurements taken from publication PMC4869717 (ACS chemical biology, 2015).
Positions count from the first letter of the chain named. In names and notes the source's numbering stands.

How the values were obtained:
AUC = target: the molecule itself; test: AUC
[1] = target: the molecule itself; test: thioflavin T fluorescence

B1: emerin fragment from amino acid 1 to amino acid 187 (EmN), wild type, His-tagged (domain or fragment, human, UniProt P50402 1-187, looked up)
chain: MDNYADLSDTELTTLLRRYNIPHGPVVGSTRRLYEKKIFEYETQRRRLSPPSSSAASSYSFSDLNSTRGDADMYDLPKKEDALLYQSKGYNDDYYEESYFTTRTYGEPESAGPSRAVRQSVTSFPDADAFHHQVHDDDLLSSSEEECKDRERPMYGRDSAYQSITHYRPVSASRSSLDLSYYPTSSS
stoichiometry N (AUC): 2

B2: EmN variant P183T (domain or fragment, human, UniProt P50402 1-187, looked up)
chain: B1 chain with P183T
binding result [1]: binds

B3: EmN variant Q133H (domain or fragment, human, UniProt P50402 1-187, looked up)
chain: B1 chain with Q133H
binding result [1]: binds

B4: EmN variant P183H (domain or fragment, human, UniProt P50402 1-187, looked up)
chain: B1 chain with P183H
binding result [1]: binds

B5: emerin fragment from amino acid 1 to amino acid 187 (EmN), wild type, His-tag cleaved (domain or fragment, human, UniProt P50402 1-187, looked up)
chain: B1 chain
fold increase in ThT fluorescence intensity at 480 nm [1]: 10 fold

B6: EmN variant S54F (domain or fragment, human, UniProt P50402 1-187, looked up)
chain: B1 chain with S54F
binding result [1]: binds
